This sample holds only a part of the variants without activity.
B1: TPR 5TU (parent)
chain: GGAUCUUCUCGAUCUAACAAAAAAGACAAAUCUGCCACAAAGCUUGAGAGCAUCUUCGGAUGCAGAGGCGGCAGCCUUCGGUGGCGCGAUAGCGCCAACGUUCUCAACUAUGACACGCAAAACGCGUGCUCCGUUGAAUGGAGUUUAUCAUG

Variants of: B1
Test: polymerase ribozyme fitness, log enrichment relative to wild type (log ratio); higher = more active; in vitro selection for triplet polymerase activity
In short: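 Mutant libraries of both subunits of a heterodimeric triplet polymerase ribozyme were PCR-built, transcribed, and selected once in triplicate, with frozen incubation at −7 °C and capture of gel-excised extended constructs on streptavidin beads before RT-PCR. Illumina sequencing of input and output libraries was filtered to genotypes with ≥10 input reads and ≥1 read per output. Fitness is the logarithm of genotype enrichment over wild-type enrichment, using inverse-variance-weighted replicate averages. The logarithm is base 2.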

Variant | polymerase ribozyme fitness (log ratio)
A49G C75G U77A U82C C93G C125U U134C U146C A147U | ≤ -4.2
C43U C57U | -3.79
C43U A91U A98G C99U U102G | ≤ -4.2
A3G C93U | -1.78
A16U C85A | -2.74
C14G U31A G68A G86A A91G C108A C118G | ≤ -4.2
A23G G84U | -3.88
G71A C95U C132U | -4.11
U4A A17C G94A C149U | -1.61
U45A G67C G84U C108U A120U | ≤ -4.2
A17G G48C G94A C95U | -3.29
C51A G68U U82C C116U U146G | ≤ -4.2
U9A C32A U33G A49U C51U U53A C54U G84U C103A C108G C118G C149U | ≤ -4.2
G50A A91U C99U C103G C108U A137C G141C | ≤ -4.2
C5G C93U | -2.31
G67C C87A G100A | ≤ -4.2
A20U A23C C35G G84A C125U | ≤ -4.2
C32G U45C | -4.16
G11U C76A G83U C85A A137G | ≤ -4.2
U9A U55A C85U G94A C114U G140C | ≤ -4.2
U31A G81C C96G U111A G126A | ≤ -4.2
C10U G84A U101A A115U A121G G124A | ≤ -4.2
C35A C87U | -4.03
A28C U31G A41U G65A C85G G88U C96U C103U U135G | ≤ -4.2

Variant | polymerase ribozyme fitness (log ratio)
A21U A60U C103G C108U A142G U148C | ≤ -4.2
U9C A16U A19U U31A C35U A49U | ≤ -4.2
G34U | -1.11
C51U A73U C118G A119C | -1.81
G71A U104C | -3.42
C27U A47G A52C G83A U146G | -3.62
A66C A91C | ≤ -4.2
C5A C38U A66C C72U C79A C96A G117A | ≤ -4.2
G50A U53A U56A C75U C116A U134G | ≤ -4.2
C43U C54G G92A U148G C149U | ≤ -4.2
C36A U78A | ≤ -4.2
A28U U90G C99U G141U U151G | ≤ -4.2
A40C A60U | 0.0412
A29U U55G C57U G67C A98G | ≤ -4.2
G84A U127C U139G A142C | -3.93
C35G C57U C85G U151A | ≤ -4.2
A52U C118U U146G | -3.62
G80A C87U A89C C99A A120U | -2
C57U C116G G124C G141C U145G | ≤ -4.2
A37U G58U C96U C118G U146C | -3.08
A21G A24U C93G | -4.02
A24U C93U A119C | -1.98
U13C C93U U134A | -3.08
C54G U55A G94A C132U | ≤ -4.2

Variant | polymerase ribozyme fitness (log ratio)
C27U C35A G133U C149G | ≤ -4.2
A3U C38A C85G C99U G124A | -3.77
U15C G84C C125U U134G A150U | ≤ -4.2
G62U C132A | ≤ -4.2
G50A A97G A138C | -4.01
A30G U33A U55A A91C C132U A142U | ≤ -4.2
C35A C95G C105G A106G G141A | ≤ -4.2
A73G C96G C105A U139A | ≤ -4.2
C76G C87G U90A A121C A122U | ≤ -4.2
A17U A19G C36U G42C G50A A73U A147C | ≤ -4.2
C54U A115G | -3.13
A3U A22C C87A G92U | -0.18
A60G U77G C87U C132G | ≤ -4.2
G58C A98U | -0.459
C95U U145A | 0.0594
A89G A98U | -1.66
C32U C36A U55A U77G A91U G140U | -3.95
U4A C5G C69U C79U C85U G94C G117A G128U | ≤ -4.2
C10U C75U G84A U145A | -4.08
C14G U33C G84U G94A | -4.16
C57U C75G | -3.63
U6G U13G C57G | -2.26
G59C A98U C125A G140C | ≤ -4.2
A40C A97C | 1.5

Variant | polymerase ribozyme fitness (log ratio)
G48C G70A G88U C96G | ≤ -4.2
A97U C116U | -0.695
A21U A24C U56A C96U A138U | ≤ -4.2
A17U G42A A91C A122U G136C | ≤ -4.2
U15G G50U U61A C93G C105U A107G | ≤ -4.2
U56A C96U A138U | -4.06
A39G U55A C96A A97U | -3.27
U7G C63G C76G C93G A97U C99G A106U | ≤ -4.2
G50A C103U | -1.49
C87U C105G | -1.18
A19U A37U U44G A66U G92U C96A C123U G124A | ≤ -4.2
A20C C87A C116U | ≤ -4.2
C43G U56G C96U U139G U148G | ≤ -4.2
A41U U144G G152A | -1.09
A37C C96G U101G A150C U151A | ≤ -4.2
U111C | -1.77
C14U C35A A40G G84A | ≤ -4.2
A60C C105G | -3.44
C10G A21U A22U U55A G59C A142C | ≤ -4.2
C5G A41U G59C G84A | -2.99
U9G A21C C35U C85G | ≤ -4.2
A40U U45A C69U G83U G141A U144A | ≤ -4.2
A52U G83A C95U | -3.78
A49U C85G A115C | -3.64

Variant | polymerase ribozyme fitness (log ratio)
U61A G86A A97U C99G A113U G152U | ≤ -4.2
C36A U56A C57A A122G U127C | ≤ -4.2
G86U C93G A106G C132U U148A | -3.05
C63A G92U C116U | -3.98
A23U A40G U77A G84A U146G | ≤ -4.2
C35A A39C G83A C114A G117A C123G G140U | ≤ -4.2
G46C G50C A89G A107C G152C | ≤ -4.2
C87U C125A C131U | 0.186
U56A U130A A147C | -3.18
A41G C85A U101G | -1.82
A22U G46C A73U | -3.61
G68A C85G | ≤ -4.2
C36U G59A U82G A97U | -1.3
A40C G42C C69G C85A U104G G128C G133A | ≤ -4.2
A26G G59A A89C C105U | ≤ -4.2
A47G C54G | -0.785
U90G A97G C114U U139G | ≤ -4.2
C18A A52G C87A G92C C95A U104A | ≤ -4.2
C38U C57A G143C | -2.41
A20C G59A G81C G86C | -3.14
A12C A23C C54A G81U G92C C99A | ≤ -4.2
A17U C32A A37U A41U | ≤ -4.2
A52G U109G A122U | -1.46
C18A A21U A29U U56A C95A A137G A142C | ≤ -4.2

Variant | polymerase ribozyme fitness (log ratio)
A40U U82G G92A | -2.82
A12G U15C A37G U44A U56A C69U C87U | ≤ -4.2
C10U G11U A30U C76A A119U A120C A137U | ≤ -4.2
A41G A49C G68U C76U C93U A97U | ≤ -4.2
C43A C57U C76G C85A G86A G140A | ≤ -4.2
A47U A97G A98G C116U A150U | 0.886
U44A G50U G59A C85A C99G G126U | ≤ -4.2
A49C U61G G62A G81C | -4.13
A22U A47U U53G U55A C57U G68A G86C C99U A138C U148G | ≤ -4.2
A16G C27A C35G C43A U56G G58C C93U G117C A119C A121U G136A | ≤ -4.2
U61G C99G A138G | ≤ -4.2
U4C G74A | -3.29
C18U U53A G74C A107U U135C G140C | ≤ -4.2
A40G U45A A47C C99U A115C G124C | ≤ -4.2
U55A C103U | -0.726
U61A G140A | ≤ -4.2
U55A C76U A121C | -0.181
C14U U144G | -0.898
C38A C76A C93U G117A | -1.25
G81U C85A U139G | -0.703
A20G C69U G84C G126C G136A | -1.72
U55A U56C G58A G92C A119U U145G | -2.87
A24U G94A | 0.123
A30U C38A C75G C85U G141C | ≤ -4.2

Variant | polymerase ribozyme fitness (log ratio)
U15G A49C G50A U78A A91C C93A G126U | ≤ -4.2
G94A C105G C116A G141C | ≤ -4.2
U56C U109A | -1.87
A26U U55A G74A G92A A110U G136A | ≤ -4.2
A22G C54U C85U C116G | 1.12
A49C C51U A52C G62A G70A G84A A106G A115G | ≤ -4.2
G42U A47G C99G C116U | ≤ -4.2
G84A G88U C96G A113U U144G | ≤ -4.2
U4C C14A C93G | ≤ -4.2
A30U U44G A52C C85G A107G G126C U134A A147G | ≤ -4.2
A49C A89U A138U | ≤ -4.2
A39U U61C C96A | -3.93
C116U A119U | -0.298
C8U G42C C51U U61G C95A C125G U127G A137U C149G | ≤ -4.2
A16G A30U C38A C96G A97C C105G A107U A110U | ≤ -4.2
C85U G140A | -3.24
C18U C27U A28C G74U G100U U144G G152C | ≤ -4.2
A21C G50A U102A | -1.21
A21U A113C U127G C132U | ≤ -4.2
C75G C85U U101C | ≤ -4.2
A17C C32G C54A C76G G80A C93A C96A U111A | ≤ -4.2
C103A U144G | -2.84
G81A C85U A91U G124C U134A | ≤ -4.2
